Measurements: paper PMC5849602
Values belong to the binder of their own block, whether it stands above or below them. The star is where a group is joined. AFC = O=c1cc(C(F)(F)F)c2ccc(N*)cc2o1

Key:
[1] = molecular target: T1, recombinant Casp6-R65W (from full-length Casp6-His) (human) (UniProt P55212)
T1 sequence: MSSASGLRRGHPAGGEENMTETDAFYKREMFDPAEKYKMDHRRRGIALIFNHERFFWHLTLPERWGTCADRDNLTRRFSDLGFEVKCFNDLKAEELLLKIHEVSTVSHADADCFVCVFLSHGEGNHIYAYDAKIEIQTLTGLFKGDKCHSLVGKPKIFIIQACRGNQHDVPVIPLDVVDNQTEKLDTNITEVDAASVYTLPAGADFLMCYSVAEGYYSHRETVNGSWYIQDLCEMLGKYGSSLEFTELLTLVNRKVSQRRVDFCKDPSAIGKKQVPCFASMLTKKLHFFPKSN

[2] = molecular target: T2, recombinant Casp6-WT (from full-length human Casp6-WT-6xHis-tag-C-terminus) (human) (UniProt P55212)
T2 sequence: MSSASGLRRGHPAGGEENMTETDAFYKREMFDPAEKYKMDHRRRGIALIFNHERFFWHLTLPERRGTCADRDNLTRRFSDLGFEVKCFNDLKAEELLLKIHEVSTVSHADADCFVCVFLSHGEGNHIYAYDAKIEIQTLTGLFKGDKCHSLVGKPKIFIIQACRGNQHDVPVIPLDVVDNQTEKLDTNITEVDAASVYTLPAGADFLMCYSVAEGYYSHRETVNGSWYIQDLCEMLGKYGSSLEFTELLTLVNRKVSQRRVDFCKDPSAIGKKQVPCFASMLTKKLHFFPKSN

[3] = molecular target: T3, Casp6-WT lacking its pro-domain (∆Casp6-WT) (human) (UniProt P55212)
T3 sequence: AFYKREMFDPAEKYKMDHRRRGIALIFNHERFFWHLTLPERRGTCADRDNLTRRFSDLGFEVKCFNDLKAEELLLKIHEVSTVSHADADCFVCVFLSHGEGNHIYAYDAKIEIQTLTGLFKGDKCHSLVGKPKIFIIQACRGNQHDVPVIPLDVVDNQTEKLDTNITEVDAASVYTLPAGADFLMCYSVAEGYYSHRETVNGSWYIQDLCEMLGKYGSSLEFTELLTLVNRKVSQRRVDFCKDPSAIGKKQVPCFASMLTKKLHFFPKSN

[4] = substrate: ΔN D179 CT version of Casp6-WT (human) (UniProt P55212); assay: thermal shift assay (SYPRO Orange); 10 μM Casp6 with or without 50 μM Ac-VEID-CHO, 20 mM Tris pH 8.5, 5 mM DTT, 5x SYPRO Orange, 25 to 95 °C; ΔTm = Tm with minus Tm without Ac-VEID-CHO
[5] = molecular target: co-expressed Casp6-R65W large and small subunits (human); assay: as above

KM of Ac-VEID-AFC cleavage (Michaelis-Menten fit; 20 nM Casp6, 1-300 µM Ac-VEID-AFC) [1]: 102 µM | KM of Ac-VEID-AFC cleavage (Michaelis-Menten fit; 20 nM Casp6, 1-300 µM Ac-VEID-AFC) [2]: 39.1 µM
B1: Ac-Val-Glu-Ile-Asp-7-Amino-4-trifluoromethylcoumarin (peptide)
peptide: Ac-VEID-{AFC}
SMILES: CC[C@H](C)[C@H](NC(=O)[C@H](CCC(=O)O)NC(=O)[C@@H](NC(C)=O)C(C)C)C(=O)N[C@@H](CC(=O)O)C(=O)Nc1ccc2c(C(F)(F)F)cc(=O)oc2c1

reduction of the VEIDase activity (40 µM Ac-VEID-AFC) of Casp3-processed ∆Casp6-WT (0.02 mg/ml) on addition of proCasp6-G66R (0.02-0.06 mg/ml, ratios 1:1 to 3:1), not dose-dependent [3]: 30%
B2: recombinant proCasp6-G66R (from full-length Casp6-His) (enzyme)
chain: MSSASGLRRGHPAGGEENMTETDAFYKREMFDPAEKYKMDHRRRGIALIFNHERFFWHLTLPERRRTCADRDNLTRRFSDLGFEVKCFNDLKAEELLLKIHEVSTVSHADADCFVCVFLSHGEGNHIYAYDAKIEIQTLTGLFKGDKCHSLVGKPKIFIIQACRGNQHDVPVIPLDVVDNQTEKLDTNITEVDAASVYTLPAGADFLMCYSVAEGYYSHRETVNGSWYIQDLCEMLGKYGSSLEFTELLTLVNRKVSQRRVDFCKDPSAIGKKQVPCFASMLTKKLHFFPKSN

increase of melting temperature with Ac-VEID-CHO (ΔTm) [4]: 7 °C | increase of melting temperature with Ac-VEID-CHO (ΔTm) [5]: 4.6 °C
Binder: Ac-VEID-aldehyde [Ac-VEID-CHO]
